# Literature values as cited in patent EP1600162A1, “Shelf-stable formulation of glucagon-like peptide-1” (Eli Lilly & Company, priority 1998, dated 2005).
# Conditions: stored at 4° C
substance,measurement,value
GLP-1(7-37): GLP-1 molecule affected by dipeptidyl-peptidase IV; background peptide,time after sample preparation at which by-products have been found,eleven
